From US20250136701A1 (GO THERAPEUTICS, published 2025) come the findings set out here.

The target in assay [1] is T1, cMET-Tn peptide PTKSFISGGSTITGVGKNLN, glycosylated with GalNAc on the serine and threonine residues (O-linked GalNAc on the serine at position 10 and the threonine at position 11; N-terminal biotin in the form described for Biacore and Octet).
T1 construct: Synthetic 20-residue glycopeptide of cMET; GalNAc sites not given; also called Tn-glycosylated cMET peptide; cMET glycopeptide
T1 peptide: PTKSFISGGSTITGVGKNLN
Briefly: BLI (Octet), peptide on biosensor, apparent affinity. A general note: Biolayer interferometry detects binding as a change in optical thickness at a sensor tip.

Assay [2] concerns the target T1, cMET-Tn peptide PTKSFISGGSTITGVGKNLN, …. Description: SPR (Biacore), antibody immobilised, peptide as analyte. An excerpt: Antibody affinity assays can be carried out using surface plasmon resonance (e.g., using a Biacore system (Cytiva)). In a surface plasmon resonance assay, one or more antibodies can be immobilized onto a biosensor and presented with an analyte (e.g., the cMET-Tn peptide Biotin-[…] (the amino acid portion of which is SEQ ID NO: 285; bold and underlined residues indicate GalNAc glycosylation sites) or a negative control analyte such as an unglycosylated cMET peptide (Biotin-[…] (the amino acid portion of which is SEQ ID NO:286)). The antibodies are contacted with different concentrations of the analyte, for example concentrations of 2.5 nM, 7.4 nM, 22 nM, 66 nM and 200 nM. Affininty is measured using multi-cycle kinetics in triplicate for each analyte concentration, with 1 min association and 5 min dissociation. […] The affinity is determined by fitting the binding curve to a specific model: kinetic fit (1:1 model) or if applicable heterogenous ligand binding model. The error (>95% confidence) was calculated by how close the generated curve matches the model.
On the technique in general: In SPR one partner is held on a chip, and binding of the other changes the refractive index at the surface.

Assay [3] addresses T2, MUC1-Tn.
T2 construct: Specificity control in the Biacore and Octet assays
Briefly: BLI (Octet), peptide on biosensor, apparent affinity.

B1: 15C4.1D8.1G2 (antibody, V domains shown)
VH: QVQLQQSDAELVKPGASVKISCKASGYTFTDHAIHWVKQKPEQGLEWIGYFSPGNGDIKYNEKFKGKATLTADKSSSTAYMQLNSLTSEDSAVYFCKRSLPGPMDCWGQGTSVTVSS
VL: NIVMTQSPKSMSMSVGERVTLSCKASENVGIYVSWYQQKPEQSPKLLIYGPSNRYTGVPDRFTGSGSATDFTLTISSVQAEDLADYHCGQSYSYPFTFGSGTKLEIK
notes: Mouse monoclonal antibody from a hybridoma (Balb/c mice immunised with the KLH-conjugated Tn-cMET glycopeptide)
Take B1: the values for the Kd in assay [1] and in assay [2] were 2.83 nM and 7 nM, respectively.

B2: 8H3.2B9.2C7 (antibody, V domains shown)
VH: QVQLQQSDAELVKPGASVKISCKASGYTFTDHAIHWVKQRPEQGLEWIGYFSPGNGDIKYNEKFKDKATLTADKSSSTAYMQLNSLTSEDSAVYFCKRSLPGDFDYWGQGTTLTVSS
VL: DVQITQSPSYLAASPGETITINCRASKSVSEYLAWYQEKPGKTNKLLIYSGSTLHSGIPSRFSGSGSGTDFTLTITSLAPEDFAMYFCQQHNEYPFTFGAGTKLELK
notes: Mouse monoclonal antibody from a hybridoma; also called GO-8H3
Turning to B2, the Kd in assay [1] was 7 nM; in assay [2], 6.26 nM.

B3: 16E12.1D9.1B11 (antibody, V domains shown)
VH: QVQLQQSDAELVKPGASVKISCKASGYTFTDHAIHWVKQKPEQGLEWIGYFSPGNDDVRYSEKFKGKATLTADKSSSTAYMQLNSLTSEDSAVYFCKRSLPGDFDYWGQGTTLTVSS
VL: DVQISQSPSYLAASPGETITINCRASKSINNYLVWYQEKPGKTIKPLIYSGSTLQTGTPSRFSGSGSGTDFSLTISSLEPEDFAMYYCQQHNEYPFTFGAGTKLELK
notes: Mouse monoclonal antibody from a hybridoma
In the case of B3, the Kd was 2000 nM in assay [3], 19.2 nM in assay [1] and 1.43 nM in assay [2].

B4: 14E9 (antibody, V domains shown)
VH: QEQLVESGGGLVEPGASLTLTCKASGIDFSSYWICWVRQAPGKGLEWVGCIYTGSGGNTYYATWAKGRFTVSETSSTTVTLRMTSLTAADTATYFCARMGYSAGYIGATYITVGAFNLWGQGTLVTVSS
VL: DVVMTQTPASVGAAVGGTVTIKCQASQSISNWLAWYQQKPGQPPKLLIYSASYLESGVPSRFSGSGSGTEFTLTISDLECADAATYYCQCTYGSSGDSGSWDFGGGTEVVVKG
notes: Rabbit monoclonal antibody cloned from B cells of immunised New Zealand White rabbits
For B4, in assay [1], the Kd turned out to be 1.5 nM.

B5: 39A3 (antibody, V domains shown)
VH: QSLEEYGGDLVKPGASLTLTCTASGLDFSGIYWACWVRQAPGKGLEWIACMDNRVTYATWAKGRFTSSKTSSTTVTLQMTSLTAADTATYFCARGGYGGRGLVFNLWGQGTLVTVSS
VL: DPVLTQTPPSVSAAVGGTVTIKCQSSQSVYNNNELSWYQQKPGQPPKLLIYDASTLASGVPSRFKGSGSGTQFTLTISGVQCDDAATYYCQGIYYIGDWYSAFGGGTEVVVKG
notes: Rabbit monoclonal antibody cloned from B cells
B5: the Kd in assay [1] is 52 nM.
